Measured values: US20240336683A1 (published 2024)

T1: full-length human Siglec15 with C-terminal flag and Myc tags on HEK293 cells (human, UniProt Q6ZMC9 20-328)
T1 construct: whole, on cells; also called Siglec15/HEK293; HEK293-Siglec 15; not shown: C-terminal flag and Myc tags from pCMV6-Entry vector
T1 sequence (looked up): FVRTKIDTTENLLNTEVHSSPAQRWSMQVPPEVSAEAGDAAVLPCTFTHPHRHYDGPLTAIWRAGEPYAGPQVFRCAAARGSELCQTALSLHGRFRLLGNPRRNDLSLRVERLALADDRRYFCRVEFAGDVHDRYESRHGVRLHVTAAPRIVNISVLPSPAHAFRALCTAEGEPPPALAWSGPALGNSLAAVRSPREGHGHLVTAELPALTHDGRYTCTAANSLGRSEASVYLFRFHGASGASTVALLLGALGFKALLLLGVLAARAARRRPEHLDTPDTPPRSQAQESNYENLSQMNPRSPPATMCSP

T2: rmouseSiglec15 His (mouse, UniProt A7E1W8 20-262)
T2 sequence: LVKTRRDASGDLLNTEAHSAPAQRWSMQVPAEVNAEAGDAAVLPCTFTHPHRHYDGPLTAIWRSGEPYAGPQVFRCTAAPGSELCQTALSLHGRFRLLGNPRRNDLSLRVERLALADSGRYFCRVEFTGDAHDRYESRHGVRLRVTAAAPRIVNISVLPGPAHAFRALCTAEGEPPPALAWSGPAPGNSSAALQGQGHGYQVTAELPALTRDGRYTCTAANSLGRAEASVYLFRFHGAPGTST

T3: rcynoSiglec15 His (cyno, UniProt A0A2K5UY47 20-262)
T3 construct: not shown: His tag
T3 sequence: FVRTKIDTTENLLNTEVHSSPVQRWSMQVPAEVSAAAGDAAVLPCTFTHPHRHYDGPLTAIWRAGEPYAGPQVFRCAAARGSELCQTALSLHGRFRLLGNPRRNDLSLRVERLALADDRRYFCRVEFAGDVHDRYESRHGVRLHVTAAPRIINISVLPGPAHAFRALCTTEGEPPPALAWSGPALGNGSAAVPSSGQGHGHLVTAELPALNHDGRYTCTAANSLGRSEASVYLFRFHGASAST

T4: human Siglec 15-HIS tagged recombinant protein (human, UniProt Q6ZMC9 20-263)
T4 construct: Recombinant soluble protein; also called rhSiglec15 His; human Siglec15-HIS tagged protein; not shown: HIS tag
T4 sequence (looked up): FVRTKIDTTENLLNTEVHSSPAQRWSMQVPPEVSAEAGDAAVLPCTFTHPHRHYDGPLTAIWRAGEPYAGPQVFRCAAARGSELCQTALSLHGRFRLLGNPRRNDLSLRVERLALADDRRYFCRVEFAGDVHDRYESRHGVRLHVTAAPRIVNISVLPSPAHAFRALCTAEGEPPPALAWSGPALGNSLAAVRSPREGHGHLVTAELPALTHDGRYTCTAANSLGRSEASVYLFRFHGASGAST


What was measured:
[1] = target: T1, full-length human Siglec15 with …; test: FACS on Siglec15/HEK293 cells, IgG, anti-hFc Alexa fluor 647
rmouseSiglec15 His = target: T2, rmouseSiglec15 His; test: ELISA; His-tagged Siglec15 coated, IgG titrated, anti-hFc HRP
Experimental: (§1) An ELISA assay was developed to determine the EC50 of anti-Siglec15 IgG antibodies. Briefly, a 384 well plate was immobilized with human Siglec 15-HIS tagged recombinant protein at a final concentration of 2 ug/mL in 1×PBS in total volume of 25 uL per well. The plate was incubated overnight at 4° C. followed by blocking with 80 uL of superblock per well for 1 hour. Titration of purified anti-Siglec15 IgG was performed, starting at 200 nM 2-fold serial dilution, then 25 uL was added to the human Siglec15 immobilized wells and incubated for 1 hour with shaking. The Siglec15 binding was detected by adding 25 uL of anti-hFc HRP diluted at 1:5000 in 1×PBST. In between each step, the plate was washed 3 times with 1×PBST in a plate washer. The plate was then developed with 20 ul of TMB substrate for 5 mins and stopped by adding 20 ul of 2N sulfuric acid. The plate was read at OD450 nm Biotek plate reader and then plotted in Prism 8.1 software. Similar binding experiments were done for mouse Siglec15 and cyno Siglec15 to check the cross activity of the IgG antibodies to those two species.

rcynoSiglec15 His = target: T3, rcynoSiglec15 His; test: as above
Experimental: as §1

[2] = target: T4, human Siglec 15-HIS tagged recombinant …; test: as above
Experimental: as §1

Row | EC50 [1] | EC50 (rmouseSiglec15 His) | EC50 (rcynoSiglec15 His) | EC50 [2] | Binder
1 | 1920 pM | 248 pM | 1210 pM | 527 pM | 2020EP032-B03 IgG (antibody, V domains shown, IgG form expressed in ExpiHEK293-F cells; detected with anti-hFc; also called 2020EP32-B03) VH: QVQLQQWGAGLLKPSETLSLTCAVYGGSFSGYYWSWIRQPPGKGLEWIGEINHSGSTNYNPSLKSRVTISVDTSKNQFSLKLSSVTAADTAVYYCARGPLRKYYDFWSGSRNYYYYGMDVWGQGTTVTVSS VL: QPVLTQDPAVSVALGQTVRITCQGDSLRSNYASWYQLKPGQAPVLVIYDKNNRPSGIPDRFSGSNSGNTASLTIAGAQAEDEADYYCTSRDSSGTVFGGGTKLTVL
2 | 22 pM | 10.5 pM | 25.8 pM | 22.8 pM | 2020EP032-H11 IgG (antibody, V domains shown, IgG form expressed in ExpiHEK293-F cells; detected with anti-hFc; also called 2020EP32-H11; H11 mAb) VH: EVQLVESGGGLVKPGGSLRLSCAASGFTFSSYSMNWVRQAPGKGLEWVSSISSSSSYIYYADSVKGRFTISRDNAKNSLYLQMNSLRAEDTAVYYCARDYRGYSGQNYYGMDVWGQGTTVTVSS VL: QSALTQPPSVSAAPRQKVTISCSGSSSNIGNNDVSWYQQLPGTVPKLLIYDNNKRPSGIPDRFSGSKSGTSASLGITGLQTGDEADYYCGVWDSSLSGYVFGTGTKVTVL
